# Entries after “also recorded” stand apart in the source; their conditions may differ.
# Key:
# Format in all cases: biochemical
# [1] = Reducing and oxidation activity of recombinant myo-inositol 2-dehydrogenase (BG10669 gene product)
# Method: The myo-inositol 2-dehydrogenase reducing activity was measured as described below. 5 μl of a reaction solution (200 mM Tris buffer (pH 8.0), 2% of NADH, 1% of scyllo-inosose) was mixed with 5 μl of an enzyme solution, and the mixture was allowed to react at 36° C. for 30 min. Immediately after the reaction, 500 μl of water was added, and the absorbance at 340 nm was measured. From the blank value of a test tube prepared by using water instead of the enzyme solution, the decrease in the absorbance at 340 nm was measured. […] The reaction rate was calculated from the absorbance increments at the respective times.
# [2] = Substrate specificity of scyllo-inositol dehydrogenase (relative activity of oxidation, absorbance at 545 nm); settings: relative to reactivity to scyllo-inositol, NADP^+, pH 8.0, 25° C.
# Method: Examples of an inositol isomer include scyllo-inositol (SI), myo-inositol (MI), D-chiro-inositol (DCI), L-chiro-inositol (LCI), epi-inositol (EI), muco-inositol (MuI), allo-inositol (AI), and neo-inositol (NI).
# The inositol isomers include scyllo-inositol (SI), myo-inositol (MI), D-chiro-inositol (DCI), L-chiro-inositol (LCI), epi-inositol (EI), muco-inositol (MuI), allo-inositol (AI), and neo-inositol (NI).
# The reaction rate was calculated from the absorbance increments at the respective times.
# [3] = Effects of heavy metal on scyllo-inositol dehydrogenase; settings: 2 mM heavy metal in reaction solution; no addition group = 100%
# Method: Effects by the heavy metals can be confirmed by: mixing 5 μl of a reaction solution (200 mM Tris buffer of pH 8.0 containing 2% of NADPH, 1% of scyllo-inosose, and 2 mM metal salt) and 5 μl of an enzyme solution; allowing the mixture to react at 36° C. for 30 minutes; adding 500 μl of water immediately after the completion of the reaction; determining the absorbance at 340 nm; and determining a decrease in the absorbance at 340 nm with respect to a blank value of a test solution containing water instead of the enzyme solution. The term “activated” means the case where the enzymatic activity of a fraction added with 1 mM of a heavy metal is 105% or more, preferably 120% or more, with respect to the enzymatic activity of a fraction added with no heavy metal as 100%. On the other hand, the term “inhibited” means the case where the enzymatic activity of the fraction added with 1 mM of a heavy metal is 95% or less, preferably 70% or less, with respect to the enzymatic activity of the fraction added with no heavy metal as 100%.
# The effects of heavy metal on the enzymes of the present invention were determined by: mixing 5 μl of a reaction solution (200 mM Tris buffer (pH 8.0), 2% of NADPH, 1% of scyllo-inosose, and 2 mM of a heavy metal) with 5 μl of an enzyme solution; and allowing the mixture to react at 36° C. for 30 min. After the reaction, 500 μl of water was immediately added thereto, and the absorbance at 340 nm was measured. From the blank value of a test solution prepared by using water instead of the enzyme solution, the decrease in the absorbance at 340 nm was measured. The enzyme solution was diluted as required. CaCl2, CoCl2, ZnSO4, MgSO4, SnCl2, NiCl2, and MnSO4 were used as metallic salts. The activity of the no addition group was defined as 100%, and the relative activities were compared. […] Most of the enzymes were inhibited in the presence of Zn^2+ ion, in contrast, the enzyme derived from Bacillus subtilis 168 was activated in the presence of Zn^2+ ion.
# [4] = Km values of scyllo-inositol dehydrogenase for scyllo-inosose (reciprocal plot); settings: NADPH, pH 8.0, 36° C.
# Method: The determination is carried out such that the Km value is calculated after reciprocal plot according to the general method.
# After the reaction, […] of water was immediately added thereto, and the absorbance at 340 nm was measured. From the blank value of a test solution prepared by using water instead of the enzyme solution, the decrease in the absorbance at 340 nm was measured. The enzyme solution was diluted as required. The Km values were calculated by the reciprocal plot.
# [5] = Enzyme reaction product of scyllo-inosose reduction measured by HPLC; settings: SIS: scyllo-inosose, SI: scyllo-inositol
# Method: Meanwhile, the enzyme reaction product was measured as follows: 10 mg of scyllo-inosose, 40 mg of NADPH, and 10 U of the enzyme were allowed to react in 1.0 ml of 100 mM Tris buffer (pH 8.0) at 36° C. for 4 hours, and a heat treatment was performed at 80° C. for 10 min, followed by cooling. Then, 100 μl of a strong base cation exchange resin, 100 μl of a strong acid anion exchange resin, and 10 mg of activated carbon were added, and the mixture was stirred and centrifuged. Then, the supernatant was diluted 2-fold, and measurement was performed by HPLC (Shodex Asahipak NH2P-50 4E Φ 4.6×250 mm: Shodex) using an RI detector under the condition of a column temperature of 40° C. and a mobile phase flow rate of 1.5 ml (80% acetonitrile). […] Meanwhile, the sequence of the ydgJ gene is shown in SEQ ID NO: 1, and the amino acid sequence corresponding thereto is shown in SEQ ID NO: 2.
# Meanwhile, enzyme reaction product was measured as follows: 10 mg of scyllo-inosose, 40 mg of NADPH, and 10 U of the enzyme were allowed to react in 1.0 ml of 100 mM Tris buffer (pH 8.0) at 36° C. for 4 hours, and a heat treatment was performed at 80° C. for 10 min, followed by cooling. Then, 100 μl of a strong base cation exchange resin, 100 μl of a strong acid anion exchange resin, and 10 mg of activated carbon were added, and the mixture was stirred and centrifuged. Then, the supernatant was diluted 2-fold, and measurement was performed by HPLC (Shodex Asahipak NH2P-50 4E Φ 4.6×250 mm: Shodex) using an RI detector under conditions of a column temperature of 40° C. and a mobile phase flow rate of 1.5 ml (80% acetonitrile).
# [6] = Optimum pH of scyllo-inositol dehydrogenase; settings: 200 mM phosphate buffer (pH 5.0 to 9.0); 90% or more of the maximum activity
# Method: The optimum pH can be confirmed by: mixing 5 μl of a reaction solution (200 mM […] of pH 5.0 to 9.0 containing 2% of NADPH, and 1% of scyllo-inosose) and 5 μl of an enzyme solution; allowing the mixture to react at 36° C. for 30 minutes; adding 500 μl of water immediately after the completion of the reaction; determining the absorbance at 340 nm; and determining a decrease in the absorbance at 340 nm with respect to a blank value of a test solution containing water instead of the enzyme solution. The term “optimum pH” means a pH at which the enzyme has 90% or more of the maximum activity. The enzyme of the present invention can be divided depending on, for example, a range of the optimum pH into groups each having: an optimum pH in an acidic region (optimum pH is pH of 5.5 to 6.5); an optimum pH in a neutral region (optimum pH is pH of 6.5 to 7.5 or 6.5 to 8.5); and an optimum pH in an alkaline region (optimum pH is pH of 7.0 to 8.5 or 7.5 to 9.0).
# The optimum pH of the enzymes of the present invention was determined by: mixing 5 μl of a reaction solution (200 mM phosphate buffer (pH 5.0 to 9.0), 2% of NADPH, and 1% of scyllo-inosose) with 5 μl of an enzyme solution; and allowing the mixture to react at 36° C. for 30 min. After the reaction, 500 μl of water was immediately added thereto, and the absorbance at 340 nm was measured. From the blank value of a test solution prepared by using water instead of the enzyme solution, the decrease in the absorbance at 340 nm was measured. The enzyme solution was diluted as required.
Molecule,"oxidation activity on myo-inositol ([1]; 1% myo-inositol, NAD^+, pH 8.0, 25° C.)","oxidation activity on scyllo-inositol ([1]; 1% scyllo-inositol, NAD^+, pH 8.0, 25° C.)","reducing activity on scyllo-inosose ([1]; NADH, pH 8.0, 36° C., 30 min)",Substrate specific Relative activity (less than 20%) [2],Heavy metal effects: activation [3],Heavy metal effects: strong inhibition [3],Km [4] [mM],Reduction reaction product [5],Optimum pH [6]
"myo-inositol 2-dehydrogenase: recombinant myo-inositol 2-dehydrogenase, product of BG10669 gene derived from Bacillus subtilis 168 ATCC23857 (protein, UniProt P26935 1-344, looked up) Inositol …: MSLRIGVIGTGAIGKEHINRITNKLSGAEIVAVTDVNQEAAQKVVEQYQLNATVYPNDDSLLADENVDAVLVTSWGPAHESSVLKAIKAQKYVFCEKPLATTAEGCMRIVEEEIKVGKRLVQVGFMRRYDSGYVQLKEALDNHVIGEPLMIHCAHRNPTVGDNYTTDMAVVDTLVHEIDVLHWLVNDDYESVQVIYPKKSKNALPHLKDPQIVVIETKGGIVINAEIYVNCKYGYDIQCEIVGEDGIIKLPEPSSISLRKEGRFSTDILMDWQRRFVAAYDVEIQDFIDSIQKKGEVSGPTAWDGYIAAVTTDACVKAQESGQKEKVELKEKPEFYQSFTTVQN",have an activity to oxidize myo-inositol,no activity to oxidize scyllo-inositol,have an activity to reduce scyllo-inosose,–,–,–,–,–,–
"SIDH1: scyllo-inositol dehydrogenase purified from Acetobacter sp. AB10281, DEAE-unadsorbed fraction, SEQ ID NO: 28 (protein, listed as Acetobacter sp.) MTKRKLRIGLIGSGFMGRTHAFGYSTASRVFDLPFQPELTCLADISDEAAAKAADALGFARSTSDWRTLVNDPEIDVVNITAPNAFHKEMALAAIAAGKHVYCEKPLAPLAADAREMAEAAEAKGVKTQVGFNYLCNPMLALARDMIAAGELGEIRGYRGLHAEDYMADASSPFTFRLDPAGGGALADIGSHALATAEFLMGPAAGAITQVMGDCVTVIKTRPDGKGGTRAVEVDDIGRALLRFENGATGSVEGNWIATGRTMQHDFEVYGTKGALAFTQQRFNELHFFSSTDARGRKGFRRIEAGPEHAPYGLFCVAPGHQLGFNDLKAIEVARYLEALAGHHPEPFNFRAGLRIQTLVETIHASSKSAAWRDVPTDKVKLQAKSRQHEKA",–,–,–,"DCI, LCI, EI,; also recorded: MuI, AI, NI",Co,"Sn, Zn",7.6,Only SIS → SI,pH 5.5-6.5
